Source: patent publication US12708677B2, “Contrast agents, methods for preparing contrast agents, and methods of imaging” (Georgia State University Research Foundation, Inc., priority 2008, dated 2026)

Assays:
[1] = Protein solubility by concentrating to precipitation; type: physicochemical; details: current formulation
Experimental: Protein was expressed in E. coli as inclusion body and purified using urea refolding and ion-exchange column. N15 labeled protein was expressed in SV medium as GST fusion (Yang et al., Biochem 2006) and purification was by GST-4B affinity column and SP column. Protein was verified by mass spectrometry. Protein concentration was calculated using extinction coefficient of w.t. CD2 of 11,000 (Ye et al., 2001). Protein solubility was determined by concentrating proteins to reach to precipitation using speed vac.

[2] = In vitro r1 and r2 proton relaxivity; type: physicochemical; details: 3.0 T; 50 μM designed agents, 100 μM Gd-DTPA
[3] = mouse, in vivo
Experimental: Blood Circulation Time, Tissue Retention Time, and Bio-distribution. CD-1 mice (25-30 g, a group of four mice were tested) were anesthetized with isoflurane. Appropriate dosages of Gd-CA1.CD2 or Gd-DTPA were i.v. injected (via tail vein). Blood (~50 μl) samples were collected via orbital sinus of the mouse at different time points. The mouse was euthanized at the final time point. Tissue samples from kidney, liver, heart, and lung, were collected. Serum samples were prepared from the collected blood. For the bio-distribution analyses, the animals were euthanized at single time point (indicated) after i.v. administration of the contrast agent (indicated). The organ/tissue samples were collected. Tissue extracts were freshly made from collected samples using commercially available tissue extracting kits (Qiagen). CA1.CD2 was detected and quantified by immunoblotting and Sandwich-ELISA using a monoclonal antibody (OX45, detecting antibody) and a home made polyclonal antibody (PabCD2, capture antibody). A series of known amounts of CA1.CD2 samples mixed with blank mouse scrum or tissue extracts were used as standard in Sandwich-ELISA. ELISA signal from HRP was monitored using a Fluorstar fluorescence microplate reader. For quantification of Gd^3+ in the serum and tissue samples one hour (or indicated times) after the contrast agent administration, animals were sacrificed and critical organs were collected, and the tissues were then digested with concentrated nitric acid at 120-130° C. with proper amount of ^157Gd spike as an internal marker. The digested solution was analyzed by ICP-MS (Element 2) using an isotope dilution method.
CD-1 mice (25-30 g) were anesthetized with isoflurane. Appropriate dosages of Gd-CA1.CD2 and its PEgylated variants (with Gd and ^153Gd) or Gd-DTPA were i.v. injected (via tail vein). Blood (~50 μl) samples were collected via orbital sinus of the mouse at different time points. The mouse was euthanized at the final time point. Tissue samples from kidney, liver, heart, and lung were collected. Serum samples were prepared from the collected blood. For the bio-distribution analyses, the animals were euthanized at single time point (indicated) after i.v. administration of the contrast agent (indicated). The organ/tissue samples were collected. Tissue extracts were freshly made from collected samples using commercially available tissue extracting kits (Qiagen). CA1.CD2 and its variants were detected and quantified by immunoblotting and Sandwich-ELISA using a monoclonal antibody (OX45, detecting antibody) and a home made polyclonal antibody (PabCD2, capture antibody). A series of known amounts of CA1.CD2 samples mixed with blank mouse serum or tissue extracts were used as standard in Sandwich-ELISA. ELISA signal from HRP was monitored using a Fluorstar fluorescence microplate reader. For quantification of Gd^3+ in the serum and tissue samples one hour (or indicated times) after the contrast agent administration, animals were sacrificed and critical organs were collected, and the tissues were then digested with concentrated nitric acid at 120-130° ° C. with proper amount of ^153Gd spike as an internal marker. The digested solution was analyzed.

[4] = test system: AU565 cells; experiment: Cell binding by immuno-fluorescence staining; type: cell-based; details: 37 and 4° C.
Source text: We first examined whether the designed CA1.HER2/Affi can target cancer cells by cell binding analyses. We used two cancer cell lines for the binding analyses. AU565 is derived from breast carcinoma. EMT6 is a mouse mammary tumor cell line. AU565 cells express very high levels of HER2. The EMT is regarded as a HER2 negative cell line. Binding of the Gd-CA1.HER2/Affi to the cancer cells was first analyzed by immuno-fluorescence staining using a polyclonal antibody against PEGylated parental protein CA1.CD2 (PAbPGCA1).

[5] = In vitro r1 and r2 proton relaxivity; type: physicochemical
Experimental: Determination of r1 and r2 Relaxivity Values, Relaxation times, T1 and T2, were determined at 1.5, 3, 9.4 Tesla using a Siemens whole-body MR system (1.5, 3T) or a Bruker MRI scanner (9.4T). T1 was determined using inversion recovery and T2 using a multi-echo Carr-Purcell-Meiboom-Gill (CPMG) sequence. The contrast agent samples (200 μl) with different concentrations were placed in eppendorf tubes. The tubes were placed on a tube rack, which was placed in MRI scanners for the measurement of relaxation times r1 and r2 were calculated based on r1(mM^−1 S^−1)=(1/T1s−1/T1c)/C and r2(mM^−1 S^−1)=(1/T2s−1/T2c)/C, where T1s and T2s are relaxation times with contrast agent and T1c and T2c are relaxation times without contrast agent. C is the concentration of contrast agent in mM (the measured Gd^3+ concentrations by ICP-MS). […]

[6] = test system: AU565; experiment: MR imaging of cancer cell pellets; type: cell-based
Experimental: (§1) To test whether our designed proteins are applicable for targeted imaging, we carried out MR imaging of cancer cells that were incubated with the designed protein contrast agents Gd-CA1-Affi using four different cancer cell lines with different expression levels of HER2. […] The MR image contrast enhancements from the contrast agent can be correlated to the HER2 levels.

[7] = test system: SKOV3; experiment: MR imaging of cancer cell pellets; type: cell-based
Experimental: as §1

B1: CA1.CD2: designed Gd^3+-binding protein, domain 1 of rat CD2 with ligand residues Glu15, Glu56, Asp58, Asp62, Asp64 (protein)
chain: RDSGTVWGALGHGIELNIPNFQMTDDIDEVRWERGSTLVAEFKRKMKPFLKSGAFEIDANGDLDIKNLTRDDSGTYNVTVYSTNGTRILNKALDLRILE
solubility [1]: ~ 0.7 mM
contrast enhancement in T1 weighted imaging of samples [2]: did not lead to significant enhancement
time first detectable in the kidney [3]: 15 min
time of peak in the kidney [3]: 4 to 5 h
injected dose remaining in the kidney ([3]; 15 h): less than 10%
time of sharp decrease in blood concentration of Gd^3+ and CA1.CD2 ([3]; iv): about 50 minutes
binding to AU565 cells [4]: did not bind to either of the tested cultured cells

B2: Gd-CA1.CD2: CA1.CD2 in complex with Gd^3+ (protein)
chain: RDSGTVWGALGHGIELNIPNFQMTDDIDEVRWERGSTLVAEFKRKMKPFLKSGAFEIDANGDLDIKNLTRDDSGTYNVTVYSTNGTRILNKALDLRILE
r1 relative to Gd-DTPA ([5]; 1.5T): about 20 fold
r1 ([5]; B0 1.5 T): up to 117 mM^−1 s^−1
r1 ([5]; B0 1.5 T, listed as CA1): 117 mM⁻¹ s⁻¹
r1 ([5]; B0 3 T): 48 mM⁻¹ s⁻¹
r1 ([5]; B0 9.4 T): 6 mM⁻¹ s⁻¹
contrast enhancement in T1 weighted imaging of samples [2]: able to introduce contrast enhancement
time remaining in blood circulation [3]: more than 3 hours
time without significant decrease in CA1.CD2 levels in blood ([3]; iv): 45 min
MR image of AU565 cell pellets [6]: no significant changes in MR image
MR image of SKOV3 cell pellets [7]: no significant changes in MR image
